B1: TOR1AIP2 (parent)
chain: AGQEGEDTLRRRLLAPEAGSHPQQ
B2: VPS39 (parent)
chain: LRLENNHCHIEESEHVLKKAHKYS

Variants of: B1
Assay: protein stability index of a GFP-peptide fusion (GPS, HEK-293T) (PSI 1-6); higher = more stable
Conditions: c terminus: a fixed tail appended
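Note: lentivirally expressed fusions sorted by FACS into six bins by GFP to DsRed ratio, PSI derived from sequencing read proportions per bin multiplied by bin number.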

Protein stability index, by site and new letter:
E4: N 1.65; H 1.79; G 2.21; D 2.02; Q 2.17; T 2.15; P 1.61; V 2.79; I 1.74; C 2.16; M 2.05; K 1.85; R 1.29; Y 1.72; L 1.81; F 1.79; S 2.31; W 2.35
Q3: R 1.09; D 3.76; T 2.47; C 1.34; G 2.65; K 2.02; P 2.92; W 2.14; L 2.47; I 1.55; Y 1.37; S 2.31; M 1.74; F 2.05; E 3.17; A 2.22; V 2.27; N 1.82
G2: E 2.74; Q 1.64; K 3.32; H 3.58; V 1.67; D 5.64; A 4.25; Y 2.12; N 3.23; F 2.99; P 1.51; I 2.19; M 1.55; W 2.45; R 2.91; S 2.71; C 1.6
A1: L 2; D 4.05; Y 2.26; S 1.4; Q 2.57; F 1.83; I 4.08; G 3.25; E 4.54; V 3.31; R 2.29; P 4.86; T 2.11; N 2.5; W 3.19; K 2.54; H 3.53
G5: N 3.27; K 2.46; M 1.97; I 2.72; E 2.72; Q 2.99; S 2.03; C 3.6; Y 1.84; D 3.43; W 1.35; A 2.44; L 2.49; H 2.08; F 1.83; V 2.55; R 2.46; P 2.91; T 2.72

Variants of: B2
Assay: as above
Conditions: c terminus: a fixed tail appended

Protein stability index: each site, then its substitutions
A20: Y 1.92; W 2.25
S24: Y 2.28; W 2.24; R 2.38; H 2.65; V 1.83; I 2.04; N 2.3; D 2.25; K 2.09; L 2.08; A 1.29; Q 1.92; E 3.82; F 2.37; M 2.18; G 2.84; P 1.74; C 2.17; T 2.07
Y23: L 2.7; C 2.25; W 1.72; S 2.77; D 2.15; F 2.28; K 2.21; H 3.13; I 3.14; G 2.75; P 2.56; A 2.76; Q 2.45; R 2.25; N 3.05; V 2.05; T 2.4; M 2.17; E 3.12
H21: Q 2.62; C 2.63; S 2.29; T 2.27; G 2.5; R 2; P 1.97; L 1.9; K 2.4; N 2.68; F 2.52; A 3.18; V 3.04; I 1.38; Y 2.25; E 2.78; D 2.73; W 2.12; M 1.81
K22: D 3.15; S 2.51; H 2.58; G 2.96; Y 2.55; V 2.57; E 2.4; Q 2.12; I 1.65; R 2.34; W 1.84; P 2.79; C 2.02; M 1.62; N 2.44; T 3.65; L 1.99; F 1.84; A 2.48
